Data as given in the supplement of paper PMC9112550, “Optimization of the antimicrobial peptide Bac7 by deep mutational scanning” (BMC Biology, 2022).

Tested on: Escherichia coli TOP10
Test: shrunken log2 fold change of peptide-encoding DNA abundance (4.5 h post-induction vs induction); higher = less antimicrobial activity (less host growth inhibition)
Settings: time post-induction: 4.5 h; library: site-saturation at positions 5, 18, 19, 20
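Also: peptides expressed intracellularly from a pBAD plasmid library in pooled LB shake-flask culture, induced with 0.3% L-arabinose, DNA abundance read by NGS, three biological replicates, DESeq2 with apeglm shrinkage.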

| Sequence | shrunken log2 fold change |
| --- | --- |
| RRIRSRPPRLPRPRPRPHSYPRP | -0.171 |
| RRIRFRPPRLPRPRPRPYQSPRP | -0.00405 |
| RRIRLRPPRLPRPRPRPITLPRP | -0.553 |
| RRIRQRPPRLPRPRPRPSGWPRP | -0.112 |
| RRIRMRPPRLPRPRPRPWALPRP | 0.0536 |
| RRIRWRPPRLPRPRPRPPLTPRP | 0.432 |
| RRIRYRPPRLPRPRPRPWYWPRP | -0.0383 |
| RRIRIRPPRLPRPRPRPKYKPRP | -0.775 |
| RRIRPRPPRLPRPRPRPGIWPRP | 0.157 |
| RRIRSRPPRLPRPRPRPIRKPRP | 0.143 |
| RRIRNRPPRLPRPRPRPNPIPRP | 0.0101 |
| RRIRIRPPRLPRPRPRPQEVPRP | 0.0526 |
| RRIRERPPRLPRPRPRPYMRPRP | -0.188 |
| RRIRVRPPRLPRPRPRPWGMPRP | 0.0336 |
| RRIRCRPPRLPRPRPRPGGHPRP | 0.286 |
| RRIRHRPPRLPRPRPRPGKQPRP | -0.173 |
| RRIRERPPRLPRPRPRPCLVPRP | 0.0202 |
| RRIRPRPPRLPRPRPRPLARPRP | 0.388 |
| RRIRWRPPRLPRPRPRPNGNPRP | 0.0106 |
| RRIRYRPPRLPRPRPRPPPSPRP | 0.936 |
| RRIRIRPPRLPRPRPRPTISPRP | -0.385 |
| RRIRFRPPRLPRPRPRPFGHPRP | -0.19 |
| RRIRPRPPRLPRPRPRPANNPRP | -0.353 |
| RRIRIRPPRLPRPRPRPWEMPRP | 0.177 |
| RRIRHRPPRLPRPRPRPRSTPRP | -0.00721 |

| Sequence | shrunken log2 fold change |
| --- | --- |
| RRIRYRPPRLPRPRPRPWYNPRP | -0.764 |
| RRIRNRPPRLPRPRPRPVIGPRP | -0.00814 |
| RRIRPRPPRLPRPRPRPTNNPRP | -0.329 |
| RRIRARPPRLPRPRPRPWKFPRP | -0.00178 |
| RRIRDRPPRLPRPRPRPVMDPRP | 0.114 |
| RRIRSRPPRLPRPRPRPYTTPRP | -0.0205 |
| RRIRQRPPRLPRPRPRPGQGPRP | -0.000829 |
| RRIRKRPPRLPRPRPRPTTIPRP | 0.259 |
| RRIRRRPPRLPRPRPRPQNKPRP | -0.172 |
| RRIRLRPPRLPRPRPRPKDWPRP | 0.467 |
| RRIRARPPRLPRPRPRPHAVPRP | 0.123 |
| RRIRRRPPRLPRPRPRPQIWPRP | 0.279 |
| RRIRARPPRLPRPRPRPKMLPRP | 0.332 |
| RRIRVRPPRLPRPRPRPKRTPRP | 0.0795 |
| RRIRIRPPRLPRPRPRPIGWPRP | 0.0224 |
| RRIRFRPPRLPRPRPRPKCDPRP | -0.136 |
| RRIRGRPPRLPRPRPRPEEVPRP | 1.53 |
| RRIRIRPPRLPRPRPRPSWMPRP | -0.562 |
| RRIRTRPPRLPRPRPRPLKQPRP | 0.0283 |
| RRIRWRPPRLPRPRPRPHVEPRP | -0.042 |
| RRIRPRPPRLPRPRPRPGIHPRP | -0.137 |
| RRIRNRPPRLPRPRPRPSEYPRP | -0.386 |
| RRIRTRPPRLPRPRPRPRDMPRP | 0.161 |
| RRIRNRPPRLPRPRPRPMYNPRP | -0.693 |
| RRIRFRPPRLPRPRPRPHMGPRP | -0.292 |

| Sequence | shrunken log2 fold change |
| --- | --- |
| RRIRMRPPRLPRPRPRPSWQPRP | 0.305 |
| RRIRTRPPRLPRPRPRPGNVPRP | 0.0939 |
| RRIRKRPPRLPRPRPRPEHFPRP | 0.0394 |
| RRIRIRPPRLPRPRPRPTHHPRP | 0.155 |
| RRIRFRPPRLPRPRPRPGIAPRP | -0.15 |
| RRIRIRPPRLPRPRPRPWFGPRP | -0.348 |
| RRIRPRPPRLPRPRPRPRAEPRP | 0.526 |
| RRIRYRPPRLPRPRPRPKDIPRP | -0.109 |
| RRIRYRPPRLPRPRPRPVARPRP | -0.206 |
| RRIRIRPPRLPRPRPRPHECPRP | -0.164 |
| RRIRWRPPRLPRPRPRPWRCPRP | 0.144 |
| RRIRWRPPRLPRPRPRPISQPRP | -0.392 |
| RRIRARPPRLPRPRPRPDPLPRP | 0.867 |
| RRIRKRPPRLPRPRPRPTYVPRP | -0.201 |
| RRIRNRPPRLPRPRPRPQCVPRP | -0.0063 |
| RRIRERPPRLPRPRPRPWSRPRP | 0.0483 |
| RRIRKRPPRLPRPRPRPWKKPRP | 0.0118 |
| RRIRYRPPRLPRPRPRPFMAPRP | -0.773 |
| RRIRTRPPRLPRPRPRPSEDPRP | -0.494 |
| RRIRERPPRLPRPRPRPNNTPRP | -0.769 |
| RRIRGRPPRLPRPRPRPVWIPRP | 0.276 |
| RRIRLRPPRLPRPRPRPDQTPRP | 0.0206 |
| RRIRYRPPRLPRPRPRPHGTPRP | -0.209 |
| RRIRKRPPRLPRPRPRPQDGPRP | 0.013 |
| RRIRVRPPRLPRPRPRPSNQPRP | -0.507 |

| Sequence | shrunken log2 fold change |
| --- | --- |
| RRIRHRPPRLPRPRPRPGMQPRP | 0.0824 |
| RRIRFRPPRLPRPRPRPSCGPRP | -0.235 |
| RRIRNRPPRLPRPRPRPNQDPRP | -0.251 |
| RRIRDRPPRLPRPRPRPQRQPRP | 0.0345 |
| RRIRKRPPRLPRPRPRPCYQPRP | -0.42 |
| RRIRRRPPRLPRPRPRPGTMPRP | 0.186 |
| RRIRRRPPRLPRPRPRPIFMPRP | 0.294 |
| RRIRVRPPRLPRPRPRPYGPPRP | -0.041 |
| RRIRARPPRLPRPRPRPPSWPRP | 0.736 |
| RRIRVRPPRLPRPRPRPCFRPRP | -0.164 |
| RRIRKRPPRLPRPRPRPWAHPRP | 4.43 |
| RRIRTRPPRLPRPRPRPTKLPRP | -0.0813 |
| RRIRVRPPRLPRPRPRPGRWPRP | 0.649 |
| RRIRDRPPRLPRPRPRPVSKPRP | 0.0275 |
| RRIRVRPPRLPRPRPRPICNPRP | -0.183 |
| RRIRIRPPRLPRPRPRPVMAPRP | -0.526 |
| RRIRQRPPRLPRPRPRPHEQPRP | 0.0505 |
| RRIRARPPRLPRPRPRPCMCPRP | 0.118 |
| RRIRPRPPRLPRPRPRPYRTPRP | -0.111 |
| RRIRFRPPRLPRPRPRPIVNPRP | 0.00221 |
| RRIRVRPPRLPRPRPRPIMMPRP | -0.0138 |
| RRIRNRPPRLPRPRPRPTSGPRP | 0.211 |
| RRIRPRPPRLPRPRPRPWVAPRP | 0.014 |
| RRIRARPPRLPRPRPRPSAHPRP | 0.101 |
| RRIRIRPPRLPRPRPRPMLSPRP | -0.403 |

| Sequence | shrunken log2 fold change |
| --- | --- |
| RRIRTRPPRLPRPRPRPRSWPRP | 0.532 |
| RRIRTRPPRLPRPRPRPTDPPRP | -0.198 |
| RRIRARPPRLPRPRPRPHLMPRP | 0.0747 |
| RRIRWRPPRLPRPRPRPTTHPRP | 0.163 |
| RRIRVRPPRLPRPRPRPDCKPRP | -0.104 |
| RRIRGRPPRLPRPRPRPGVIPRP | 0.375 |
| RRIRRRPPRLPRPRPRPHQPPRP | 0.557 |
| RRIRKRPPRLPRPRPRPRNDPRP | 0.352 |
| RRIRYRPPRLPRPRPRPKPVPRP | 0.218 |
| RRIRTRPPRLPRPRPRPAQMPRP | 0.0652 |
| RRIRDRPPRLPRPRPRPHNWPRP | -0.144 |
| RRIRGRPPRLPRPRPRPMYIPRP | -0.396 |
| RRIRQRPPRLPRPRPRPPDDPRP | -0.308 |
| RRIRMRPPRLPRPRPRPDRYPRP | -0.0269 |
| RRIRQRPPRLPRPRPRPSDFPRP | -0.128 |
| RRIRTRPPRLPRPRPRPPNVPRP | -0.201 |
| RRIRTRPPRLPRPRPRPVKHPRP | -0.411 |
| RRIRHRPPRLPRPRPRPHKDPRP | -0.384 |
| RRIRPRPPRLPRPRPRPEMSPRP | 0.147 |
| RRIRFRPPRLPRPRPRPVNTPRP | -0.377 |
| RRIRHRPPRLPRPRPRPGCTPRP | -0.514 |
| RRIRNRPPRLPRPRPRPLGKPRP | -0.299 |
| RRIRHRPPRLPRPRPRPCMWPRP | -0.193 |
| RRIRWRPPRLPRPRPRPQQIPRP | -0.0385 |
| RRIRNRPPRLPRPRPRPPLEPRP | 0.193 |

| Sequence | shrunken log2 fold change |
| --- | --- |
| RRIRGRPPRLPRPRPRPLINPRP | 0.116 |
| RRIRHRPPRLPRPRPRPCEHPRP | -0.00546 |
| RRIRHRPPRLPRPRPRPGGYPRP | -0.258 |
| RRIRTRPPRLPRPRPRPLWMPRP | -0.119 |
| RRIRTRPPRLPRPRPRPPAMPRP | 0.294 |
| RRIRNRPPRLPRPRPRPCNEPRP | -0.0138 |
| RRIRVRPPRLPRPRPRPDMTPRP | -0.0435 |
| RRIRKRPPRLPRPRPRPLREPRP | 0.718 |
| RRIRTRPPRLPRPRPRPFHKPRP | 0.0244 |
| RRIRYRPPRLPRPRPRPNRDPRP | -0.0959 |
| RRIRVRPPRLPRPRPRPTVAPRP | 0.37 |
| RRIRWRPPRLPRPRPRPARDPRP | 0.377 |
| RRIRARPPRLPRPRPRPSDLPRP | -0.073 |
| RRIRVRPPRLPRPRPRPKNIPRP | -0.505 |
| RRIRDRPPRLPRPRPRPYGSPRP | -0.0409 |
| RRIRVRPPRLPRPRPRPWNKPRP | -0.635 |
| RRIRSRPPRLPRPRPRPMHYPRP | -0.224 |
| RRIRWRPPRLPRPRPRPRGTPRP | 0.873 |
| RRIRHRPPRLPRPRPRPDTIPRP | -0.0628 |
| RRIRQRPPRLPRPRPRPWQIPRP | -0.0838 |
| RRIRKRPPRLPRPRPRPSYTPRP | -0.0235 |
| RRIRKRPPRLPRPRPRPMVYPRP | -0.0451 |
| RRIRKRPPRLPRPRPRPWQVPRP | -0.0062 |
| RRIRGRPPRLPRPRPRPLKEPRP | 0.343 |
| RRIRQRPPRLPRPRPRPAIRPRP | -0.0284 |
